pKd: −log10 of the molar value.
Key:
Caveolin-1 135-178 = Caveolin-1 135-178 (UniProt Q03135); experiment: given as Ka
Caveolin-1 61-101 = Caveolin-1 61-101 (UniProt Q03135); experiment: given as Ka
Caveolin-1 61-101, sequence (Q03135 61-101): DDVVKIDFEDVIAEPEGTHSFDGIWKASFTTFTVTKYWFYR

PrP, P04925, sequence (P04925 23-230): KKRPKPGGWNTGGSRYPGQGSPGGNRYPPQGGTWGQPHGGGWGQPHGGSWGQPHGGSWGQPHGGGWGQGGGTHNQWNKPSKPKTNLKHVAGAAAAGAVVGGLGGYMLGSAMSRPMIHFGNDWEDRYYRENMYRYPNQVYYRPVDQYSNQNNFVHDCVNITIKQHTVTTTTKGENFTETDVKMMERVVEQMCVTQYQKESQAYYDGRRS
Caveolin-1 135-178, sequence (Q03135 135-178): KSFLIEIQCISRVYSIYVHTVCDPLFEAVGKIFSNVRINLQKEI

Work on PrP, P04925 yielded a pKd (Caveolin-1 135-178) of 8.93 and a pKd (Caveolin-1 61-101) of 8.93.

— publication PMC1559926
